{"source": "paper PMC6872781", "about": "(Neoplasia (New York, N.Y.), 2019)", "molecular_target": "T1, PODXL1-HA(x3)-His(x6) (human, UniProt O00592-1 23-558)", "T1 sequence (looked up)": "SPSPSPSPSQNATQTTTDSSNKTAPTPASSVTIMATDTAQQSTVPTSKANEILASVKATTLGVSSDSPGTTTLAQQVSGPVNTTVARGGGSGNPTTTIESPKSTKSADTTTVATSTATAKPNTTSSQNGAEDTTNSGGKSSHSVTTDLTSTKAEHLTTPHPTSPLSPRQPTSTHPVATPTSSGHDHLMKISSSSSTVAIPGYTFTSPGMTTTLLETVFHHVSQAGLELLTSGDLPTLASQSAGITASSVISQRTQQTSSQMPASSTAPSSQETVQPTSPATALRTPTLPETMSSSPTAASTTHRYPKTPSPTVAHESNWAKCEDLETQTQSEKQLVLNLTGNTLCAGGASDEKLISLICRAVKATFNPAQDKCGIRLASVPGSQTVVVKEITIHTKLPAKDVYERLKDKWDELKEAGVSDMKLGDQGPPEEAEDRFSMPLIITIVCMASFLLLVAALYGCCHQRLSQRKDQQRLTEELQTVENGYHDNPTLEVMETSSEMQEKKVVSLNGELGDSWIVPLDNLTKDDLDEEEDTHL", "assay": "pull-down", "data": [{"binder": "C5aR (Complement component 5a receptor 1), C-terminal 3xFlag-6xHis-tagged (receptor, human, UniProt P21730 1-350, looked up) MDSFNYTTPDYGHYDDKDTLDLNTPVDKTSNTLRVPDILALVIFAVVFLVGVLGNALVVWVTAFEAKRTINAIWFLNLAVADFLSCLALPILFTSIVQHHHWPFGGAACSILPSLILLNMYASILLLATISADRFLLVFKPIWCQNFRGAGLAWIACAVAWGLALLLTIPSFLYRVVREEYFPPKVLCGVDYSHDKRRERAVAIVRLVLGFLWPLLTLTICYTFILLRTWSRRATRSTKTLKVVVAVVASFFIFWLPYQVTGIMMSFLEPSSPTFLLLKKLDSLCVSFAYINCCINPIIYVVAGQGFQGRLRKSLPSLLRNVLTEESVVRESKSFTRSTVDTMAQKTQAV", "values": [{"measurement": "binding result", "value": "binds"}]}]}
